Assay [1] concerns the target T1, L1 (DV1-GV4), recombinant soluble human Vδ1/Vγ4 γδ TCR heterodimer (human).
T1 construct: Biotinylated in the DELFIA ranking assay; also called human TRDV1; human Vδ1 antigen
The experiment in a line: SPR. (In SPR one partner is held on a chip, and binding of the other changes the refractive index at the surface.)

In assay [2] the target is T2, human EGFR, recombinant protein (human, UniProt P00533 25-645).
T2 construct: Bought protein; also called human EGFR antigen
The experiment in a line: SPR.

The target of assay [3] is T3, Vδ1 TCR on human Vδ1-positive γδ T cells (human, UniProt A0A1B0GX56 22-115).
T3 construct: also called Vδ1 γδ T-cells; cell surface Vδ1 TCR
Description: flow cytometry on skin-derived Vδ1+ cells, 20 min at 4 C, anti-human Fc secondary. A general note: A flow cytometer gives signals particle by particle.
Description: Cells were washed and stained with an anti-human Fc secondary antibody (Jackson Immunoresearch) and a viability dye for dead cells (eFlour 780, Invitrogen) for 20 minutes at 4° C. The cells were washed in FACS buffer and resuspended in Cell Fix (BD sciences) before analysis on a MACSQuant Analyser 10 flow cytometer (Miltenyi).

The target in assay [4] is T1, L1 (DV1-GV4), recombinant soluble human …. The experiment in a line: SPR (Reichert 4SPR): antibody on a Protein A chip, human Vδ1 antigen flowed; column 'Affinity to Vδ1 (nM)'.
Description: Human Vδ1 antigen was flown over the cell at a 1:3 dilution series with top concentrations of 50 nM with the following parameters: 180s association, 900s dissociation, flow rate 25 μL/min, running buffer PBS+0.05% Tween-20. The chip surface was regenerated using 20 mM phosphoric acid following each injection. All experiments were performed at room temperature. Steady state fitting was determined according to Langmuir 1:1 binding using TraceDrawer software (Reichert Technologies.
Assay [5] shares this target. The experiment in a line: SPR (Reichert 4SPR), antibody on Protein A chip, human Vδ1 antigen as analyte, 1:1 fit, mean of two replicates (Avg KD).
Description: The binding affinity of the antibodies to target (i.e. the Vδ1 chain of a γ TCR) is established by SPR analysis using a Reichert 4SPR instrument (Reichert Technologies).
The binding interaction of Vδ1 and the affinity-matured mAbs were modelled according to Langmuir 1:1 binding.
In assay [6] the target is T3, Vδ1 TCR on human Vδ1-positive γδ T cells. Description: flow cytometry binding to γδ T cells, Donor 2 (TS164); column head printed IC50 (nM), the text calls it EC50 of binding; same value in the table of FIG. 11C.
Description: (§1) (FIGS. 11A-11B) The level of binding by the V61 mAbs to two γδ T cell donors, ATS006 (FIG. 11A) and TS164 (FIG. 11B). γδ T cells were stained with varying concentrations of Vδ1 mAbs, followed by a fluorescent anti-human IgG detection antibody (xxx). All incubation steps were performed at 4° C. and mAb binding was determined using flow cytometry to measure the median level of fluorescence. Logarithmic four parameter dose-response curves were fitted using GraphPad Prism 9.
(§2) A range of target cells were assayed to determine the specificity and affinity of Vδ1 mAb binding. This included expanded skin-derived Vδ1 γδ T-cells, HEK293T cells, Raji cells, and multiple leukocyte subsets within human primary blood mononuclear cells. Adherent or semi-adherent cells (skin-derived Vδ1 γδ T-cells, HEK293T) were detached from tissue culture flask and resuspended in PBS. Similarly, non-adherent cell types (Raji, PBMC), were harvested and resuspended in PBS. Cells were seeded at a final density of 100,000 cells per well in v-bottom 96-well plates. Cells underwent centrifugation and the cell pellets were resuspended in FcR blocking reagent according to the manufacturer's instructions, and incubated for 20 minutes at 4C prior to a further wash. […] To determine the quantity of mAb bound to the cell surface, the cells were then stained with a murine anti-human IgG secondary antibody, conjugated to APC (product code . . . , dilution: 1:100). For Vδ1 γδ T-cells, HEK293T and Raji, the cells were also stained solely with a viability dye.
Assay [7] shares this target. Description: flow cytometry binding to γδ T cells, Donor 1 (ATS006); column head printed IC50 (nM), the text calls it EC50 of binding; same value in the table of FIG. 11C.
Description: as §1, §2

The source of these data is patent publication US20240132599A1 (GAMMADELTA THERAPEUTICS, published 2024).

T3 sequence (A0A1B0GX56 22-115 limits assumed, stated change not applied): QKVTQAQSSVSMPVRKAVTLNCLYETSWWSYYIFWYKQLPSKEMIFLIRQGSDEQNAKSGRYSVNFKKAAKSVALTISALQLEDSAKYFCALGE
T1 sequence (main, as listed by the source): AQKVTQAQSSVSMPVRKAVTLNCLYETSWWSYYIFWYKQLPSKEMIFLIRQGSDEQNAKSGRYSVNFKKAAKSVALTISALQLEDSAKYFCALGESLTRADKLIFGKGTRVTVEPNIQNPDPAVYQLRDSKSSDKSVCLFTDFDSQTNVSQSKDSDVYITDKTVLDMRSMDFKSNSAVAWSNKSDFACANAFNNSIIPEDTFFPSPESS

B1: ADT1-4-2/ADT3-6 (bispecific antibody)
heavy: EVQLQQSGPGLVKPSQTLSLTCAISGDSVSSKSAAWNWIRQSPSRGLEWLGRTYYRSKWSTDYAASVKSRITINPDTSKNQLSLQLNSVTPEDTAVYYCARTWVGYVDRWGQGTLVTVSSASTKGPSVFPLAPSSKSTSGGTAALGCLVKDYFPEPVTVSWNSGALTSGVHTFPAVLQSSGLYSLSSVVTVPSSSLGTQTYICNVNHKPSNTKVDKKVEPKSCDKTHTCPPCPAPELAGAPSVFLFPPKPKDTLMISRTPEVTCVVVDVSHEDPEVKFNWYVDGVEVHNAKTKPREEQYNSTYRVVSVLTVLHQDWLNGKEYKCKVSNKALPAPIEKTISKAKGQPREPQVYTLPPSRDELEEGPVSLTCLVKGFYPSDIAVEWESNGQPENNYKTTPPVLDSDGSFFLYSKLTVSYWRWYKGNVFSCSVMHEALHNHYTQKSLSLSPG
light: DIQMTQSPPALSASVGDRVTITCRASQDINDWLAWYQHKPGKAPKLLIYDASSLESGVPLRFSGSGSGTEFTLTISSLQPDDFATYYCQQKYSAPQVTFGQGTRLEIKRTVAAPSVFIFPPSDEQLKSGTASVVCLLNNFYPREAKVQWKVDNALQSGNSQESVTEQDSKDSTYSLSSTLTLSKADYEKHKVYACEVTHQGLSSPVTKSFNRGEC
notes: mAb2; also called ADT1-4-2xLEE2
As for B1, the Kd in assay [1] worked out at 0.818 nM; in assay [2], 19.2 nM.

B2: ADT1-4-2/ADT3-3 (bispecific antibody, human IgG1, kappa)
heavy: EVQLQQSGPGLVKPSQTLSLTCAISGDSVSSKSAAWNWIRQSPSRGLEWLGRTYYRSKWSTDYAASVKSRITINPDTSKNQLSLQLNSVTPEDTAVYYCARTWVGYVDRWGQGTLVTVSSASTKGPSVFPLAPSSKSTSGGTAALGCLVKDYFPEPVTVSWNSGALTSGVHTFPAVLQSSGLYSLSSVVTVPSSSLGTQTYICNVNHKPSNTKVDKKVEPKSCDKTHTCPPCPAPELAGAPSVFLFPPKPKDTLMISRTPEVTCVVVDVSHEDPEVKFNWYVDGVEVHNAKTKPREEQYNSTYRVVSVLTVLHQDWLNGKEYKCKVSNKALPAPIEKTISKAKGQPREPQVYTLPPSRDELDEGGPVSLTCLVKGFYPSDIAVEWESTYGPENNYKTTPPVLDSDGSFFLYSKLTVSYWRWVKGNVFSCSVMHEALHNHYTQKSLSLSPG
light: DIQMTQSPPALSASVGDRVTITCRASQDINDWLAWYQHKPGKAPKLLIYDASSLESGVPLRFSGSGSGTEFTLTISSLQPDDFATYYCQQKYSAPQVTFGQGTRLEIKRTVAAPSVFIFPPSDEQLKSGTASVVCLLNNFYPREAKVQWKVDNALQSGNSQESVTEQDSKDSTYSLSSTLTLSKADYEKHKVYACEVTHQGLSSPVTKSFNRGEC
notes: also called ADT1-4-2xFS1-65
With B2, the Kd was 0.464 nM in assay [1] and 1.35 nM in assay [2].

B3: ADT1-4-2/ADT3-1 (bispecific antibody)
heavy: EVQLQQSGPGLVKPSQTLSLTCAISGDSVSSKSAAWNWIRQSPSRGLEWLGRTYYRSKWSTDYAASVKSRITINPDTSKNQLSLQLNSVTPEDTAVYYCARTWVGYVDRWGQGTLVTVSSASTKGPSVFPLAPSSKSTSGGTAALGCLVKDYFPEPVTVSWNSGALTSGVHTFPAVLQSSGLYSLSSVVTVPSSSLGTQTYICNVNHKPSNTKVDKKVEPKSCDKTHTCPPCPAPELAGAPSVFLFPPKPKDTLMISRTPEVTCVVVDVSHEDPEVKFNWYVDGVEVHNAKTKPREEQYNSTYRVVSVLTVLHQDWLNGKEYKCKVSNKALPAPIEKTISKAKGQPREPQVYTLPPSRDETDDGPVSLTCLVKGFYPSDIAVEWESTYGPENNYKTTPPVLDSDGSFFLYSKLTVSYWRWYKGNVFSCSVMHEALHNHYTQKSLSLSPG
light: DIQMTQSPPALSASVGDRVTITCRASQDINDWLAWYQHKPGKAPKLLIYDASSLESGVPLRFSGSGSGTEFTLTISSLQPDDFATYYCQQKYSAPQVTFGQGTRLEIKRTVAAPSVFIFPPSDEQLKSGTASVVCLLNNFYPREAKVQWKVDNALQSGNSQESVTEQDSKDSTYSLSSTLTLSKADYEKHKVYACEVTHQGLSSPVTKSFNRGEC
notes: mAb2; also called ADT1-4-2xFS1-67
B3: the Kd worked out at 0.378 nM in assay [1] and 1.37 nM in assay [2].

B4: ADT1-4-2/ADT3-4 (bispecific antibody)
heavy: EVQLQQSGPGLVKPSQTLSLTCAISGDSVSSKSAAWNWIRQSPSRGLEWLGRTYYRSKWSTDYAASVKSRITINPDTSKNQLSLQLNSVTPEDTAVYYCARTWVGYVDRWGQGTLVTVSSASTKGPSVFPLAPSSKSTSGGTAALGCLVKDYFPEPVTVSWNSGALTSGVHTFPAVLQSSGLYSLSSVVTVPSSSLGTQTYICNVNHKPSNTKVDKKVEPKSCDKTHTCPPCPAPELAGAPSVFLFPPKPKDTLMISRTPEVTCVVVDVSHEDPEVKFNWYVDGVEVHNAKTKPREEQYNSTYRVVSVLTVLHQDWLNGKEYKCKVSNKALPAPIEKTISKAKGQPREPQVYTLPPSRDETESGPVSLTCLVKGFYPSDIVVEWESKFGPENNYKTTPPVLDSDGSFFLYSKLTVSNLRWTKGHVFSCSVMHEALHNHYTQKSLSLSPG
light: DIQMTQSPPALSASVGDRVTITCRASQDINDWLAWYQHKPGKAPKLLIYDASSLESGVPLRFSGSGSGTEFTLTISSLQPDDFATYYCQQKYSAPQVTFGQGTRLEIKRTVAAPSVFIFPPSDEQLKSGTASVVCLLNNFYPREAKVQWKVDNALQSGNSQESVTEQDSKDSTYSLSSTLTLSKADYEKHKVYACEVTHQGLSSPVTKSFNRGEC
notes: mAb2; also called ADT1-4-2x747
For the molecule B4, the Kd in assay [1] turned out to be 0.511 nM; in assay [2] it was 2.35 nM.

B5: ADT1-4-6/ADT3-2 (bispecific antibody, V domains shown)
VH: EVQLQQSGPGLVKPSQTLSLTCAISGDSVSSKSAAWNWIRQSPSRGLEWLGRTYYRSKWSTDYAASVKSRITINPDTSKNQLSLQLNSVTPEDTAVYYCARTWAGYPDVWGQGTLVTVSS
VL: DIQMTQSPPALSASVGDRVTITCRASQDINDWLAWYQHKPGKAPKLLIYDASSLESGVPLRFSGSGSGTEFTLTISSLQPDDFATYYCQQKYKTPQVTFGQGTRLEIK
notes: mAb2, human IgG1; light constant region not tied; also called ADT1-4-6 × LEE
As for B5, the Kd in assay [2] stood at 0.655 nM. In assay [3], the EC50 was found to be 0.279 nM and the 95% effect level (EC95) was put at 2.77 nM. In addition, the Kd in assay [4] is 1.26 nM.

B6: ADT1-4/ADT3-1 (bispecific antibody, human IgG1, V domains shown)
VH: QVQLQQSGPGLVKPSQTLSLTCAISGDSVSSKSAAWNWIRQSPSRGLEWLGRTYYRSKWSTDYAASVKSRITINPDTSKNQLSLQLNSVTPEDTAVYYCARTWSGYVDVWGQGTLVTVSS
VL: DIQMTQSPPALSASVGDRVTITCRASQDINDWLAWYQHKPGKAPKLLIYDASSLESGVPSRFSGSGSGTEFTLTISSLQPDDFATYYCQQSYSTPQVTFGQGTRLEIKR
notes: mAb2; also called G04 × FS1-67; G04 FS1-67
On to B6, for which the values for the Kd in assay [1] and in assay [2] were 152 nM and 1.14 nM, respectively.

B7: ADT1-4-138/ADT3-2 (bispecific antibody, V domains shown)
VH: EVQLQQSGPGLVKPSQTLSLTCAISGDSVSSKSAAWNWIRQSPSRGLEWLGRTYYRSKWSTDYAASVKSRITINPDTSKNQLSLQLNSVTPEDTAVYYCARTWADYVDVWGQGTLVTVSS
VL: DIQMTQSPPALSASVGDRVTITCRASQDINDWLAWYQHKPGKAPKLLIYDASSLESGVPSRFSGSGSGTEFTLTISSLQPDDFATYYCQQRYSTDQVTFGQGTRLEIK
notes: mAb2, human IgG1; light constant region not tied; also called ADT1-4-138 × LEE; ADT1-4-138xADT3-2
For B7, the Kd in assay [2] came to 2.78 nM; in assay [4], 18.3 nM. Moreover, the EC50 in assay [3] stood at 0.209 nM. This molecule also displayed an EC95 in assay [3] of 2.25 nM.

B8: ADT1-7 (parental) (antibody, IgG1, V domains shown)
VH: QVQLVESGGGLVKPGGSLRLSCAASGFTFSDYYMSWIRQAPGKGLEWVSYISSSGSTIYYADSVKGRFTISRDNAKNSLYLQMNSLRAEDTAVYYCARVDYADAFDIWGQGTLVTVSS
VL: DIQMTQSPSSLSASVGDRVTIACRAGQSIGTYLNWYQQKPGKAPKLLIYVASSLQSGVPSRFSGSGSGTEFTLTISSLQPEDFATYYCQQSYSTLLTFGRGTKVEIK
notes: IgG1; also called E07; 1245_P01_E07
Turning to B8, the Kd in assay [5] is 38.1 nM. In addition, the figures for the EC50 in assay [6] and in assay [7] were 226 nM and above 100 nM, respectively.

B9: ADT1-7-3 (antibody, IgG1, V domains shown)
VH: EVQLVESGGGLVKPGGSLRLSCAASGFTFSDYYMSWIRQAPGKGLEWVSYISSSGSTIYYADSVKGRFTISRDNAKNSLYLQMNSLRAEDTAVYYCARVSYAEAFDIWGQGTLVTVSS
VL: DIQMTQSPSSLSASVGDRVTIACRAGQSIGTYLNWYQQKPGKAPKLLIYVASSLQSGVPSRFSGSGSGTEFTLTISSLQPEDFATYYCQQSYSGLDTFGRGTKVEIK
notes: IgG1
As to B9, the Kd in assay [5] came to 3.78 nM. In addition, the EC50 was determined as 0.952 nM in assay [6] and 5.15 nM in assay [7].

B10: ADT1-7-20 (antibody, IgG1, V domains shown)
VH: EVQLVESGGGLVKPGGSLRLSCAASGFTFSDYYMSWIRQAPGKGLEWVSYISSSGSTIYYADSVKGRFTISRDNAKNSLYLQMNSLRAEDTAVYYCARVDYQEAFDIWGQGTLVTVSS
VL: DIQMTQSPSSLSASVGDRVTIACRAGQSIGTYLNWYQQKPGKAPKLLIYVASSLQSGVPSRFSGSGSGTEFTLTISSLQPEDFATYYCQQSYSGLDTFGRGTKVEIK
notes: IgG1
As for B10, the Kd in assay [5] amounted to 4.99 nM. For the same molecule, the EC50 turned out to be 2.68 nM in assay [6] and 37.2 nM in assay [7].

B11: ADT1-7-61 (antibody, IgG1, V domains shown)
VH: EVQLVESGGGLVKPGGSLRLSCAASGFTFSDYYMSWIRQAPGKGLEWVSYISSSGSTIYYADSVKGRFTISRDNAKNSLYLQMNSLRAEDTAVYYCARDDYDDAFDIWGQGTLVTVSS
VL: DIQMTQSPSSLSASVGDRVTIACRAGQSIGTYLNWYQQKPGKAPKLLIYVASSLQSGVPSRFSGSGSGTEFTLTISSLQPEDFATYYCQQSASELLTFGRGTKVEIK
notes: IgG1
Regarding B11, the equilibrium dissociation constant (Kd) in assay [5] stood at 1.04 nM. Further, the EC50 in assay [6] turned out to be 196 nM; in assay [7], 93 nM.

By Kd is commonly meant the free concentration of one partner at which half of the binding sites on the other are occupied at equilibrium, for simple one-to-one binding. As usually defined, the EC50 is the midpoint of the concentration-response curve. Low readings indicate greater potency, high ones weaker potency. A word on the EC95: it is the point of the concentration-response curve where the effect stands at 95%. Higher therefore signals weaker potency.
